Earlier results on one molecule are cited in article PMC8844171 (Clinical Drug Investigation, 2022).

Read-outs that look alike come from different tables or passages of the source.

The subject of the data set is patients with distal MCA or ICA occlusion.

B1: alteplase: standard thrombolytic treatment for AIS (protein, UniProt P00750 36-562, looked up)
Tissue-type plasminogen …: SYQVICRDEKTQMIYQQHQSWLRPVLRSNRVEYCWCNSGRAQCHSVPVKSCSEPRCFNGGTCQQALYFSDFVCQCPEGFAGKCCEIDTRATCYEDQGISYRGTWSTAESGAECTNWNSSALAQKPYSGRRPDAIRLGLGNHNYCRNPDRDSKPWCYVFKAGKYSSEFCSTPACSEGNSDCYFGNGSAYRGTHSLTESGASCLPWNSMILIGKVYTAQNPSAQALGLGKHNYCRNPDGDAKPWCHVLKNRRLTWEYCDVPSCSTCGLRQYSQPQFRIKGGLFADIASHPWQAAIFAKHRRSPGERFLCGGILISSCWILSAAHCFQERFPPHHLTVILGRTYRVVPGEEEQKFEVEKYIVHKEFDDDTYDNDIALLQLKSDSSRCAQESSVVRTVCLPPADLQLPDWTECELSGYGKHEALSPFYSERLKEAHVRLYPSSRCTSQHLLNRTVTDNMLCAGDTRSGGPQANLHDACQGDSGGPLVCLNDGRMTLVGIISWGLGCGQKDVPGVYTKVTNYLDWIRDNMRP
Regarding B1, the Recanalization rate was less than 10% (patients with ICA occlusion) and “approximately 40%” (patients with distal MCA occlusion).
